Data as given in US20200231679A1 (DRAGONFLY THERAPEUTICS, published 2020).
Residue numbers refer to the chain shown, from its start.

T1: recombinant cynomolgus NKG2D-Fc fusion protein (cynomolgus; human, UniProt P61252 73-216)
T1 construct: extracellular domain; not shown: human IgG1 Fc domain
T1 sequence (looked up): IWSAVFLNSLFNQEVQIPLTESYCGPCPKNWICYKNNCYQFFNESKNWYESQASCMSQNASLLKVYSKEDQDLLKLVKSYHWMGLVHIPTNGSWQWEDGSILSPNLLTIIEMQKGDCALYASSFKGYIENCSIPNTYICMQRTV

B1: ADI-29403 (antibody, V domains shown)
VH: QVQLQQWGAGLLKPSETLSLTCAVYGGSFSGYYWSWIRQPPGKGLEWIGEIDHSGSTNYNPSLKSRVTISVDTSKNQFSLKLSSVTAADTAVYYCARARGPWSFDPWGQGTLVTVSS
VL: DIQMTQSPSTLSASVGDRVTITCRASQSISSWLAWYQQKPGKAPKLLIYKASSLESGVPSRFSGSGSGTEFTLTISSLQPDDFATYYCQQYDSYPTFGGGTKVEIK
B2: ADI-27705 (antibody, V domains shown)
VH: B1 VH
VL: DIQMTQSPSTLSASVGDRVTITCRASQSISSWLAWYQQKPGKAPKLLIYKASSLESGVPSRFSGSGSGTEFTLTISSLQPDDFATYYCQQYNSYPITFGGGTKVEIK
B3: ADI-29424 (antibody, V domains shown)
VH: B1 VH
VL: DIQMTQSPSTLSASVGDRVTITCRASQSISSWLAWYQQKPGKAPKLLIYKASSLESGVPSRFSGSGSGTEFTLTISSLQPDDFATYYCQQYDSFITFGGGTKVEIK
B4: ADI-29404 (antibody, V domains shown)
VH: B1 VH
VL: B3 VL with Q89E, F94Y, I95P
notes: also called F04
B5: ADI-29425 (antibody, V domains shown)
VH: B1 VH
VL: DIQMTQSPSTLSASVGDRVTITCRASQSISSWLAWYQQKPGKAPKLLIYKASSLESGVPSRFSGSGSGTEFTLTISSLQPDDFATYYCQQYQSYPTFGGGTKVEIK
B6: ADI-29429 (antibody, V domains shown)
VH: B1 VH
VL: DIQMTQSPSTLSASVGDRVTITCRASQSIGSWLAWYQQKPGKAPKLLIYKASSLESGVPSRFSGSGSGTEFTLTISSLQPDDFATYYCQQYELYSYTFGGGTKVEIK
B7: ADI-27740 (antibody, V domains shown)
VH: B1 VH
VL: B3 VL with S30G, D92H, I95Y
notes: also called A40
B8: ADI-29426 (antibody, V domains shown)
VH: B1 VH
VL: B3 VL with S30G, D92H, I95P
B9: ADI-29405 (antibody, V domains shown)
VH: B1 VH
VL: B3 VL with D92G, I95P
B10: ADI-29419 (antibody, V domains shown)
VH: B1 VH
VL: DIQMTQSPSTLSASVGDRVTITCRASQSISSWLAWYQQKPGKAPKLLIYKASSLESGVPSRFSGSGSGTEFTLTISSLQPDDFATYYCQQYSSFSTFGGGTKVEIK
B11: ADI-27741 (antibody, V domains shown)
VH: B1 VH
VL: B3 VL with S30G, Y91S, D92N, F94Y, I95Y
B12: ADI-29421 (antibody, V domains shown)
VH: B1 VH
VL: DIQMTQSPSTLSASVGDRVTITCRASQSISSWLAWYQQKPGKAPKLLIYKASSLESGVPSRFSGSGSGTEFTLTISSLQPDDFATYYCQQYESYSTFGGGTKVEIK
B13: ADI-29407 (antibody, V domains shown)
VH: B1 VH
VL: B3 VL with D92Q, I95P
B14: ADI-28226 (antibody, V domains shown)
VH: B1 VH
VL: B6 VL with G30S, E92G, L93S, Y94F, S95P, Y96I
notes: also called C26
B15: ADI-27743 (antibody, V domains shown)
VH: B1 VH
VL: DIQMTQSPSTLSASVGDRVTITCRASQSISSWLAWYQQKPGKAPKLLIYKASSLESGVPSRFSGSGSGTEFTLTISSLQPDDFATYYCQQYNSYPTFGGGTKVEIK
B16: ADI-29399 (antibody, V domains shown)
VH: B1 VH
VL: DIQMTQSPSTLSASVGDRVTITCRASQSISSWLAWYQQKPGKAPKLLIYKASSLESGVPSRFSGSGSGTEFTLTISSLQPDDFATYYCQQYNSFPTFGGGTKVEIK
B17: ADI-29447 (antibody, V domains shown)
VH: B1 VH
VL: B3 VL with S93T
notes: also called F47
B18: ADI-29401 (antibody, V domains shown)
VH: B1 VH
VL: B3 VL with S30G, S93I, F94Y, I95P
B19: ADI-27727 (antibody, V domains shown)
VH: QVQLVQSGAEVKKPGSSVKVSCKASGGTFSSYAISWVRQAPGQGLEWMGGIIPIFGTANYAQKFQGRVTITADESTSTAYMELSSLRSEDTAVYYCARGDSSIRHAYYYYGMDVWGQGTTVTVSS
VL: not shown
B20: ADI-29378 (antibody, V domains shown)
VH: QVQLVQSGAEVKKPGASVKVSCKASGYTFTSYYMHWVRQAPGQGLEWMGIINPSGGSTSYAQKFQGRVTMTRDTSTSTVYMELSSLRSEDTAVYYCAREGAGFAYGMDYYYMDVWGKGTTVTVSS
VL: EIVLTQSPATLSLSPGERATLSCRASQSVSSYLAWYQQKPGQAPRLLIYDASNRATGIPARFSGSGSGTDFTLTISSLEPEDFAVYYCQQSDNWPFTFGGGTKVEIK
notes: also called E78
B21: ADI-27749 (antibody, V domains shown)
VH: EVQLVESGGGLVKPGGSLRLSCAASGFTFSSYSMNWVRQAPGKGLEWVSSISSSSSYIYYADSVKGRFTISRDNAKNSLYLQMNSLRAEDTAVYYCARGAPMGAAAGWFDPWGQGTLVTVSS
VL: DIQMTQSPSSVSASVGDRVTITCRASQGISSWLAWYQQKPGKAPKLLIYAASSLQSGVPSRFSGSGSGTDFTLTISSLQPEDFATYYCQQGVSFPRTFGGGTKVEIK
notes: also called A49

molecular target: T1, recombinant cynomolgus NKG2D-Fc fusion …; test: ELISA on coated NKG2D-Fc

Row | binding result | Binder
1 | binds | B1
2 | binds | B2
3 | binds | B3
4 | binds | B4
5 | binds | B5
6 | binds | B6
7 | binds | B7
8 | binds | B8
9 | binds | B9
10 | binds | B10
11 | binds | B11
12 | binds | B12
13 | binds | B13
14 | binds | B14
15 | binds | B15
16 | binds | B16
17 | binds | B17
18 | binds | B18
19 | binds | B19
20 | binds | B20
21 | binds | B21
